Source: the supplement of paper PMC9170038

System: MS2 coat protein
Assay: apparent KD of MS2 coat protein; designed switch direction (-1 OFF switch, 1 ON switch): -1; higher = weaker reporter binding
Summary of the method: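 Normalised cluster fluorescence was curve-fitted, and each design's median over clusters is its apparent KD. Before this, SNAP-549-labelled MS2 coat protein was titrated from 0.7 or 1.5 nM, doubling to 3 µM, over RNA switches transcribed on Illumina chips by stalled E. coli RNA polymerase. Titrations had no input, 200 uM small-molecule ligand, or an oligonucleotide input, and steps lasted 0.8–1.5 h (lowest) to 10–20 min (highest).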

[1] = Eterna round: R95, input ligand: microRNA oligo, concentration not stated
[2] = input ligand: microRNA oligo, concentration not stated
[3] = Eterna round: R95, input ligand: FMN 200 uM
[4] = Eterna round: R95, input ligand: none

| Sequence | apparent KD of MS2 coat protein (input ligand: FMN 200 uM) [µM] | apparent KD of MS2 coat protein (input ligand: none) [µM] | apparent KD of MS2 coat protein [1] [µM] | apparent KD of MS2 coat protein [2] [µM] | apparent KD of MS2 coat protein [3] [µM] | apparent KD of MS2 coat protein [4] [µM] |
| --- | --- | --- | --- | --- | --- | --- |
| CCAAAGUCAGGAUAUGUGCGUUAAAAGCCGUACGUAACGACACAGAAGGGACAUGAGGAUCACCCAUGUUGGUG [Eternabot (Original) Solution 13] (Eterna round: R97, puzzle: Exclusion 4) | 0.0967 | 0.979 | – | – | – | – |
| CCAAGAAUAGGAUAUACAACAUGCCAGCUUCUUUACAUCGCACAUGAGGAUCACCCAUGUAGAAGGGUUCUCUG [Exclusion-2-#15] (Eterna round: R97, puzzle: Exclusion 2) | 0.182 | 0.209 | – | – | – | – |
| CCAAGCUACUUCAUUAUCCACAUGAGGAUCACCCAUGUCUAGGCAAUUAUGACCUGCCCGUCAGGAGCUCGUCUUAU [Sensor-V1 #40] (Eterna round: R97, puzzle: Sensor, turn-off variant 1) | 0.0351 | 0.0287 | – | – | – | – |
| CCAAGCUGUGUGAGGAUAUGCUGGUCGAAAGAUCAGCAGAAGGCACAUGAGGAUCACCCAUGUGAAAAGCUUGG [Mat - Exclusion 4 - JL Mod - D93] (puzzle: Brourd's mod of Exclusion 4) | – | – | 0.0163 | – | – | – |
| CCAAGCUUAUUCAUUAACAACAUGAGGAUCACCCAUGUAUAGGCAAUUAUGACUGGGCUCUUUAGUGCUCGUCUUAU [Sensor-V1 #25] (Eterna round: R97, puzzle: Sensor, turn-off variant 1) | 0.0162 | 0.0147 | – | – | – | – |
| CCAAGCUUUUUCAUUAACAACAUGAGGAUCACCCAUGUGUAAGCUAUUAGGUUUGGGCUCUUUAGUGCUCGUCUUAU [JR_STOV1_Sub041] (Eterna round: R97, puzzle: Sensor, turn-off variant 1) | 0.0145 | 0.0135 | – | – | – | – |
| CCACUUACUGAGGAUAUUGCAUCACCCGACUGAUAAGAAGGCAGAACAUGAGGAUCACCCAUGUGGGUACUCAC [Bingo-Bango-9] (Eterna round: R97, puzzle: Exclusion 6) | 0.207 | 0.155 | – | – | – | – |
| CCAGACGCUGUGAGGAUAUGAAAAGGUGCUGCUUUUUAGAAGGCACAUGAGGAUCACCCAUGUGGUACCUCGGG [Eternabot (L1) Solution 20] (Eterna round: R97, puzzle: Brourd's mod of Exclusion 4) | 0.397 | 0.514 | – | – | – | – |
| CCAGAGAGCGAAGGAUAUUCUGUUCAAUGGGUCGACCUAGACAUGAGGAUCACCCAUGUCGCCCGGGAGAAGGUCGCAAGGAUC [Eternabot solution 18] (Eterna round: R96, puzzle: Exclusion NG 2) | 0.0187 | 0.0184 | – | 0.0133 | – | – |
| CCAGCGUGUGUGAGGAUAUGCUGGUCCUUGGAUCAGCAGAAGGCACAUGAGGAUCACCCAUGUGAGAGCGUUGG [JL bmx4 3.36] (puzzle: Brourd's mod of Exclusion 4) | – | – | 0.0207 | – | – | – |
| CCAGGCAGUGUGAGGAUAUGCUGGUGCAUACAUCAGCAGAAGGCACAUGAGGAUCACCCAUGUGAAGAGCUUGG [Mat - Exclusion 4 - JL Mod - D98] (puzzle: Brourd's mod of Exclusion 4) | – | – | 0.0169 | – | 0.179 | 0.0275 |
| CCAGUACGAGGAUAUACAUGAGGAUCACCCAUGUAAAUUGCCACGUCUUGGACGUCAUGUAGAAGGCGUUGGAA [EX3 C.1] (Eterna round: R97, puzzle: Exclusion 3) | 0.0152 | 0.0143 | – | – | – | – |
| CCAUAUAACACAGGAUAUCAUCGCAACUGACGUUGAGAAGGGUGACAUGAGGAUCACCCAUGUGAUUUCUCAAUAUUAUACAUC [Prohibition 81 - Jieux - Exclusion NG 1] (Eterna round: R96, puzzle: Exclusion NG 1) | 1.04 | 1.11 | – | 0.661 | – | – |
| CCAUAUAGGAGAGGAUAUACGCACCACUAACUAGUAGAAGGCUCACAUGAGGAUCACCCAUGUGAUUUCUCAAUAUUAUACAUC [Prohibition 73 - Jieux - Exclusion NG 1] (Eterna round: R96, puzzle: Exclusion NG 1) | 0.0503 | 0.0348 | – | 0.0256 | – | – |
| CCAUCCAGUGUGAGGAUAUGCUGGUCCUUGGAUCAGCAGAAGGCACAUGAGGAUCACCCAUGUGAAUAGGAUGG [Mat - Exclusion 4 - JL Mod - D85] (puzzle: Brourd's mod of Exclusion 4) | – | – | 0.0189 | – | 0.153 | 0.0241 |
| CCAUCGUGUGUGAGGAUAUGCUGGUCCUUGGAUCAGCAGAAGGCACAUGAGGAUCACCCAUGUGAAAACGGUGG [Mat - Exclusion 4 - JL Mod - D86] (puzzle: Brourd's mod of Exclusion 4) | – | – | 0.0223 | – | 0.067 | 0.0239 |
| CCAUCGUGUGUGAGGAUAUGCUGGUCCUUGGAUCAGCAGAAGGCACAUGAGGAUCACCCAUGUGAAGACGGUGG [JL bmx4 3.22] (puzzle: Brourd's mod of Exclusion 4) | – | – | 0.0174 | – | 0.0487 | 0.0242 |
| CCAUCUCUAGUAGGAUAUGUCGGAUAUGUUGUUGAGGUUCACCCAACGACGUCAAUGACAGAAGGACAGAAGGACUCUCGAUGC [pwkr exNG2 2xFMN 1xF5.6] (Eterna round: R96, puzzle: Exclusion NG 2) | 0.114 | 0.183 | – | 0.463 | – | – |
| CCAUGUCCAGAGGAUAUGUAGCGGAUAACCGCAACAGAAGGCUGGACAUGAGGAUCACCCAUGUGCGCCUUCCA [Vege] (Eterna round: R97, puzzle: Exclusion 6) | 0.313 | 0.534 | – | – | – | – |
| CCAUUCAGAGGAUAUGCGCAUAAAUAAAACUUUUUUUUUUAACAUGAGGAUCACCCAUGUAGAAGGCUGUAACC [Ex2 #45] (Eterna round: R97, puzzle: Exclusion 2) | 0.0272 | 0.0267 | – | – | – | – |
| CCCAGUUAGGAAGGAUAUUGUACAUGAGGAUCACCCAUGUAAUAAAUGAGGAUCUCGGGUGUCUACAAGAAGGUCCGGAUAGGC [Ostracism 12 - Jieux - Exclusion NG 2] (Eterna round: R96, puzzle: Exclusion NG 2) | 0.104 | 0.0464 | – | 0.0387 | – | – |
| CCCGCAGGCUUUUUGCUCGACAUGAGGAUCACCCAUGUUGUAUGGGUUGUGUGUGUGUGGUGCAUAUAUAUGGUCCU [-25.6, -50.1 kcal, A 16%] (Eterna round: R97, puzzle: Sensor, turn-off variant 1) | 0.313 | 0.469 | – | – | – | – |
